Measurements taken from article PMC3972135, “Identification and Characterization of MT-1X as a Novel FHL3-Binding Partner” (PLoS ONE, 2014).

Target: T1, GST-FHL3 (human, UniProt Q13643 1-280)
T1 construct: Four and a half LIM domain protein 3 (FHL3), human, full length cDNA amplified from pBV220/FHL3, in pGEX-4T-1; also called GST–FHL3 fusion protein; source: E. coli DH5α, purified (GSTrap FF column)
T1 sequence (looked up): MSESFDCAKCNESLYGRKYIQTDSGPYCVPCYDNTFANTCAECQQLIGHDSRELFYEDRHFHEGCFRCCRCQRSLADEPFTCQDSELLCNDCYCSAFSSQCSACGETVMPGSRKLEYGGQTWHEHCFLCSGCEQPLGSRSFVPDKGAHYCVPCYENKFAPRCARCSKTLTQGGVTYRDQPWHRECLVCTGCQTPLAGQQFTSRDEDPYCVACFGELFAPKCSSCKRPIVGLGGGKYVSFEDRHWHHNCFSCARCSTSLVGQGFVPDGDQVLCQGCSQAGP
Assay: pull-down; purified GST-FHL3 or GST on Glutathione Agarose, His-MT-1X from in vitro translation added, 4°C overnight; Western blot with anti-His
Settings: both partners purified

B1: His-MT-1X (natural protein)
chain: not shown
notes: MT-1X (metallothionein-1X), human; cDNA amplified by PCR from pACT2/MT-1X (the full length clone); also called pT7/MT-1X; source: in vitro translated (pT7CFE1-CHis)
- binding result: binds
